Data set [1] concerns the molecule itself. As to the kind of experiment: AUC.
Data set [2] deals with the molecule itself. Kind of data set: SEC. In general terms: Size exclusion chromatography separates by hydrodynamic size, large species first.
Data set [3] deals with T1, C448Y/E442Q Spastin (human, UniProt Q9UBP0 228-616, E442Q | C448Y).
T1 sequence: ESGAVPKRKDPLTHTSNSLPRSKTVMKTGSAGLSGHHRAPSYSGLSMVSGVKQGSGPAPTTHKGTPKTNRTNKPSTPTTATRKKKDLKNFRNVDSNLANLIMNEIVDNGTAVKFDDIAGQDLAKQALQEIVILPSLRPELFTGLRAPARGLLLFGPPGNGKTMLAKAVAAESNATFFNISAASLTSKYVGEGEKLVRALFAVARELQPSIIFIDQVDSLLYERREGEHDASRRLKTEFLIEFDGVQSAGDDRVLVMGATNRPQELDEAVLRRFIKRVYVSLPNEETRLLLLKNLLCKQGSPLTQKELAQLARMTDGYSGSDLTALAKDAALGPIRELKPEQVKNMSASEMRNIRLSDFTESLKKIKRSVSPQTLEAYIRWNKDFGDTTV
Kind of data set: pull-down.

Residue numbers refer to the chain shown, from its start. In names and notes the source's numbering stands.

B1: E442Q Spastin (enzyme)
chain: T1 sequence with Y221C
Consider B1, for which, in data set [1], the “stoichiometry N” value turned out to be 6.

B2: R451G/E442Q Spastin (enzyme)
chain: T1 sequence with Y221C, R224G
With B2, the binding result in data set [2] is on record as “binds”.

B3: A457E/E442Q Spastin (enzyme)
chain: T1 sequence with Y221C, A230E
As for B3, the binding result in data set [2] is listed as “binds”.

B4: GST–tubulin tail (GST fused to the C-terminal 104 amino acids of murine α-tubulin), ending in Tyr (domain or fragment)
chain: not shown
As to B4, the binding result in data set [3] is “binds”.

One may read the stoichiometry N as a count of units in the complex or per binding partner.

The values are drawn from article PMC2064084 (The Journal of Cell Biology, 2007).
